Experimental data: US20170101442A1
Ends that are not written are not given here.

How the values were obtained:
[1] = biological target: insulin-like growth factor 2 receptor (IGF2R) on rat hepatic stellate cells HSC-T6 (rat); assay: flow cytometry, uptake of 5-FAM labelled peptide by HSC-T6 cells, 1 h
[2] = biological target: insulin-like growth factor 2 receptor (IGF2R) on rat hepatic stellate cells HSC-T6 (rat); assay: flow cytometry, 5-FAM labelled peptide titrated on HSC-T6 cells, 1 h at 37 C; apparent Kd

cellular uptake [1]: 12% | Kd [2]: 12.3 µM
Binder: VHWDFRQWWQPS (also: 5-FAM label, position not given here) [Peptide-431]
